The record followed here is patent publication US20200262867A1 (WNTRX PHARMACEUTICALS, published 2020).

Bridges are numbered along the chain shown (N, C = ends). Primed or numbered codes have the meaning given here. Where no end group is shown, it is not given here. Side-chain parts run from the residue outwards. [ ]: non-standard residue; d: D form. The star is where a group is joined. S5′ = (S)-2-(4'-pentenyl)alanine, olefinic stapling residue closed by ring-closing metathesis; NMeQ′ = N-methylglutamine (N-alpha-methyl, stereo named both D and L in the filing); PEG4″ = PEG4 (tetraethylene glycol) spacer; 2Nal = N[C@@H](Cc1ccc2ccccc2c1)C(=O)O; d2Nal = N[C@H](Cc1ccc2ccccc2c1)C(=O)O; NMeH = CN[C@@H](Cc1c[nH]cn1)C(=O)O; NMeR = CN[C@@H](CCCNC(=N)N)C(=O)O; Palmitoyl = CCCCCCCCCCCCCCCC(=O)*; hArg = N=C(N)NCCCC[C@H](N)C(=O)O; tBuAla = CC(C)(C)C[C@H](N)C(=O)O; NMeQ = CN[C@@H](CCC(N)=O)C(=O)O; Cha = N[C@@H](CC1CCCCC1)C(=O)O; Cit = NC(=O)NCCC[C@H](N)C(=O)O; Cba = N[C@@H](CC1CCC1)C(=O)O; S5 = C=CCCC[C@](C)(N)C(=O)O; Nle = CCCC[C@H](N)C(=O)O

Sequences and labels used below:
B1: SEQ ID NO: 189 (peptide)
peptide: Ac-HRQRSLQTL[NMeR][S5]IQR[S5][Cha][2Nal]-NH2
modifications: staple 11-15
SMILES: CC[C@H](C)[C@@H]1NC(=O)[C@@](C)(NC(=O)[C@H](CCCNC(=N)N)N(C)C(=O)[C@H](CC(C)C)NC(=O)[C@@H](NC(=O)[C@H](CCC(N)=O)NC(=O)[C@H](CC(C)C)NC(=O)[C@H](CO)NC(=O)[C@H](CCCNC(=N)N)NC(=O)[C@H](CCC(N)=O)NC(=O)[C@H](CCCNC(=N)N)NC(=O)[C@H](Cc2c[nH]cn2)NC(C)=O)[C@@H](C)O)CCCC=CCCC[C@@](C)(C(=O)N[C@@H](CC2CCCCC2)C(=O)N[C@@H](Cc2ccc3ccccc3c2)C(N)=O)NC(=O)[C@H](CCCNC(=N)N)NC(=O)[C@H](CCC(N)=O)NC1=O
B2: SEQ ID NO: 215 (peptide)
peptide: Ac-[NMeH]RQRSLQTLR[S5]IQR[S5][Cha][2Nal]-NH2
modifications: staple 11-15
SMILES: CC[C@H](C)[C@@H]1NC(=O)[C@@](C)(NC(=O)[C@H](CCCNC(=N)N)NC(=O)[C@H](CC(C)C)NC(=O)[C@@H](NC(=O)[C@H](CCC(N)=O)NC(=O)[C@H](CC(C)C)NC(=O)[C@H](CO)NC(=O)[C@H](CCCNC(=N)N)NC(=O)[C@H](CCC(N)=O)NC(=O)[C@H](CCCNC(=N)N)NC(=O)[C@H](Cc2c[nH]cn2)N(C)C(C)=O)[C@@H](C)O)CCCC=CCCC[C@@](C)(C(=O)N[C@@H](CC2CCCCC2)C(=O)N[C@@H](Cc2ccc3ccccc3c2)C(N)=O)NC(=O)[C@H](CCCNC(=N)N)NC(=O)[C@H](CCC(N)=O)NC1=O
B3: SEQ ID NO: 222 (peptide)
peptide: Ac-H[hArg]QRSLQTLR[S5]IQ[Cit][S5][Cha][2Nal]-NH2
modifications: staple 11-15
SMILES: CC[C@H](C)[C@@H]1NC(=O)[C@@](C)(NC(=O)[C@H](CCCNC(=N)N)NC(=O)[C@H](CC(C)C)NC(=O)[C@@H](NC(=O)[C@H](CCC(N)=O)NC(=O)[C@H](CC(C)C)NC(=O)[C@H](CO)NC(=O)[C@H](CCCNC(=N)N)NC(=O)[C@H](CCC(N)=O)NC(=O)[C@H](CCCCNC(=N)N)NC(=O)[C@H](Cc2c[nH]cn2)NC(C)=O)[C@@H](C)O)CCCC=CCCC[C@@](C)(C(=O)N[C@@H](CC2CCCCC2)C(=O)N[C@@H](Cc2ccc3ccccc3c2)C(N)=O)NC(=O)[C@H](CCCNC(N)=O)NC(=O)[C@H](CCC(N)=O)NC1=O
B4: SEQ ID NO: 164 (peptide)
peptide: HRQRSLQTLR[S5]IQ[NMeR][S5][Cba][2Nal]
modifications: staple 11-15; not fully specified (residues 3, 7, N-terminus, C-terminus); printed as HR(N-methylQ)RSL(N-methylQ)TLRXIQ(N-methylR)X(CBA)(2-Nal), X/X stapled, (S) α-methyl, N-terminal Ac, C-terminal NH2
B5: SEQ ID NO: 188 (peptide)
peptide: Ac-HRQRSLQTLR[S5]IQR[S5][Cha][d2Nal]-NH2
modifications: staple 11-15
SMILES: CC[C@H](C)[C@@H]1NC(=O)[C@@](C)(NC(=O)[C@H](CCCNC(=N)N)NC(=O)[C@H](CC(C)C)NC(=O)[C@@H](NC(=O)[C@H](CCC(N)=O)NC(=O)[C@H](CC(C)C)NC(=O)[C@H](CO)NC(=O)[C@H](CCCNC(=N)N)NC(=O)[C@H](CCC(N)=O)NC(=O)[C@H](CCCNC(=N)N)NC(=O)[C@H](Cc2c[nH]cn2)NC(C)=O)[C@@H](C)O)CCCC=CCCC[C@@](C)(C(=O)N[C@@H](CC2CCCCC2)C(=O)N[C@H](Cc2ccc3ccccc3c2)C(N)=O)NC(=O)[C@H](CCCNC(=N)N)NC(=O)[C@H](CCC(N)=O)NC1=O
B6: SEQ ID NO: 223 (peptide)
peptide: HRQRSLQTLXXIQRXAA
modifications: H(homoArg)QRSLQTL(Cit)XIQRX(Cha)(2-Nal); X/X stapled, (S) α-methyl; N-terminal Ac; C-terminal NH2
B7: SEQ ID NO: 158 (peptide)
peptide: Ac-H[NMeR]QRSLQTLR[S5]IQR[S5][Cba][2Nal]-NH2
modifications: staple 11-15; not fully specified; printed as H(R-Me)QRSLQTLRXIQRX(CBA)(2-Nal), X/X stapled, (S) α-methyl, N-terminal Ac, C-terminal NH2
B8: SEQ ID NO: 191 (peptide)
peptide: Ac-HRQRSLQTLR[S5]IQR[S5][tBuAla][2Nal]-NH2
modifications: staple 11-15
SMILES: CC[C@H](C)[C@@H]1NC(=O)[C@@](C)(NC(=O)[C@H](CCCNC(=N)N)NC(=O)[C@H](CC(C)C)NC(=O)[C@@H](NC(=O)[C@H](CCC(N)=O)NC(=O)[C@H](CC(C)C)NC(=O)[C@H](CO)NC(=O)[C@H](CCCNC(=N)N)NC(=O)[C@H](CCC(N)=O)NC(=O)[C@H](CCCNC(=N)N)NC(=O)[C@H](Cc2c[nH]cn2)NC(C)=O)[C@@H](C)O)CCCC=CCCC[C@@](C)(C(=O)N[C@@H](CC(C)(C)C)C(=O)N[C@@H](Cc2ccc3ccccc3c2)C(N)=O)NC(=O)[C@H](CCCNC(=N)N)NC(=O)[C@H](CCC(N)=O)NC1=O
B9: SEQ ID NO: 190 (peptide)
peptide: Ac-HRQRSLQTLR[S5]IQ[NMeR][S5][Cha][2Nal]-NH2
modifications: staple 11-15
SMILES: CC[C@H](C)[C@@H]1NC(=O)[C@@](C)(NC(=O)[C@H](CCCNC(=N)N)NC(=O)[C@H](CC(C)C)NC(=O)[C@@H](NC(=O)[C@H](CCC(N)=O)NC(=O)[C@H](CC(C)C)NC(=O)[C@H](CO)NC(=O)[C@H](CCCNC(=N)N)NC(=O)[C@H](CCC(N)=O)NC(=O)[C@H](CCCNC(=N)N)NC(=O)[C@H](Cc2c[nH]cn2)NC(C)=O)[C@@H](C)O)CCCC=CCCC[C@@](C)(C(=O)N[C@@H](CC2CCCCC2)C(=O)N[C@@H](Cc2ccc3ccccc3c2)C(N)=O)NC(=O)[C@H](CCCNC(=N)N)N(C)C(=O)[C@H](CCC(N)=O)NC1=O

For the assay, the target named is T1, β-catenin (UniProt P35222 1-781, limits assumed).
T1 construct: also called beta-catenin
T1 sequence (looked up): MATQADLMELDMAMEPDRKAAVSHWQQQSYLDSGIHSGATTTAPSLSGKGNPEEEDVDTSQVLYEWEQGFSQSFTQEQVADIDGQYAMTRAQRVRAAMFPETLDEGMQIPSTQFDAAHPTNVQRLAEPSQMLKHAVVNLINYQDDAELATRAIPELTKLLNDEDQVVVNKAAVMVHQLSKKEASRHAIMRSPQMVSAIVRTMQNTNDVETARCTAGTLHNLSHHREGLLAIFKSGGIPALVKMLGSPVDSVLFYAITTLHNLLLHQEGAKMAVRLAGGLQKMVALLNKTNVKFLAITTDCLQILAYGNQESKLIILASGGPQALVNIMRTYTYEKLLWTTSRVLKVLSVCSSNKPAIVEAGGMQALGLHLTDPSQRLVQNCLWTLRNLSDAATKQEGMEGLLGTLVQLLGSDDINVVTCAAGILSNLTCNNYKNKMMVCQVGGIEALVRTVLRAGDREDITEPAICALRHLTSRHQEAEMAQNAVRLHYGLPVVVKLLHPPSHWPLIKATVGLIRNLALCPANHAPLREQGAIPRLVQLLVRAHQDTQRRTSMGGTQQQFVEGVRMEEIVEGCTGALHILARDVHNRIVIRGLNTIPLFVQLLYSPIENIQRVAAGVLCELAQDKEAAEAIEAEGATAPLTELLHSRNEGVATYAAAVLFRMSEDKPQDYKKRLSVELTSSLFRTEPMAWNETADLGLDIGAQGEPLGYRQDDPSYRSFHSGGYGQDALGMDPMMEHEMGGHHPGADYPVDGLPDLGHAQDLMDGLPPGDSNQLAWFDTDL
The assay is described as follows: ALPHA Screen (BCL9/β-catenin).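 Also: bead proximity readout with the polypeptide linked to donor beads and β-catenin fixed on acceptor beads, their binding bringing the beads close enough to emit signal.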
Description: In this assay, a polypeptide is conjugated to a donor bead and its target protein (i.e., β-catenin) is attached to an acceptor bead. When the two beads are in proximity due to the binding of the polypeptide to the target protein, a signal is generated and the binding affinity of the polypeptide can be quantitatively calculated. The assay may be conducted in the presence or absence of an unconjugated control polypeptide.
Regarding B1, it took 247 nM to reach half-maximal inhibition (IC50). This counts as sub-micromolar.

In turn, {Palmitoyl-PEG4″}-HR[NMeQ′]RSL[NMeQ′]TLR[S5]IQR[S5][Cha][2Nal]-NH2 (staple 11-15; not fully specified) [SEQ ID NO: 207] yielded an IC50 of 354 nM.

Take {Palmitoyl-PEG4″}-L[NMeQ′]TLR[S5]IQR[S5][Cba][2Nal]-NH2 (staple 6-10; also: Q2 N-methyl: stated both D and L) [SEQ ID NO: 213]: the IC50 stood at 466 nM.

In the case of Ac-EHRERSLQTLR[S5]IQR[S5]L[2Nal]-NH2 (staple 12-16; not fully specified; printed as EHRERSLQTLRXIQRXL(2-Nal)) [SEQ ID NO: 7], the IC50 is 810 nM.

Ac-EHQERSLQTLR[S5]IQR[S5]L[2Nal]-NH2 (staple 12-16; not fully specified; printed as EHQERSLQTLRXIQRXL(2-Nal)) [SEQ ID NO: 12] had a 50% inhibitory concentration (IC50) of 4160 nM. Against the preceding molecule, the IC50 is about 5.1-fold higher.

Regarding Ac-EHRERSLQTLR[S5′]IQR[S5′][Cba][2Nal]-NH2 (staple 12-16; not fully specified; printed as EHRERSLQTLRXIQRX(CBA)(2-Nal)) [SEQ ID NO: 9], inhibition was half-maximal at 1500 nM (IC50).

With {Palmitoyl-PEG4″}-H[hArg]QRSLQTLR[S5]IQR[S5][Cha][2Nal]-NH2 (staple 11-15) [SEQ ID NO: 209], it took 253 nM to reach half-maximal inhibition (IC50).

Ac-HRQRSLQTLR[S5]IQR[S5][Cba][2Nal]K([PEG4″-Palmitoyl])-NH2 (staple 11-15) [SEQ ID NO: 161] registered an IC50 of 791 nM.

In the case of B2, the IC50 was determined as 9520 nM.

LQTLR[Nle]IQR[Nle]L[2Nal]P [SEQ ID NO: 56]: half-maximal inhibition (IC50) was put at 10100 nM.

B3: the IC50 was found to be 742 nM. Compared with the last molecule, the IC50 is about 14-fold lower.

The molecule B4 registered an IC50 of 1480 nM. This IC50 is about 2-fold higher than that of the molecule before.

Molecule Ac-HR[NMeQ]RSLQTLR[S5]IQR[S5][tBuAla][2Nal]-NH2 (staple 11-15; also: N-methylglutamine 3: D or L (filing names both)) [SEQ ID NO: 193] showed a 50% inhibitory concentration (IC50) of 323 nM.

With B5, the IC50 stood at 387 nM.

Ac-QLEHRERSLQTLR[S5]IQR[S5]L[2Nal]-NH2 (staple 14-18; not fully specified; printed as QLEHRERSLQTLRXIQRXL(2-Nal)) [SEQ ID NO: 8] showed an IC50 of 770 nM.

Turning to B6, the IC50 came out at 573 nM.

{Palmitoyl-PEG4″}-HRQRSLQTLR[S5]IQR[S5][Cba][2Nal]-NH2 (staple 11-15) [SEQ ID NO: 160] showed an IC50 of 361 nM.

B7 gave an IC50 of 383 nM. This IC50 and that of the molecule before are within 1.5-fold of each other.

Consider LQTLRDIQRML[2Nal]P [SEQ ID NO: 55], for which the IC50 was 30300 nM.

In turn, B8 yielded an IC50 of 322 nM.

Consider RSLQTLRDIQRML[2Nal] [SEQ ID NO: 57], for which the IC50 was found to be 13600 nM.

The molecule B9 showed an IC50 of 271 nM.

What is called IC50 is the concentration that inhibits the measured activity by half.
